How the values were obtained:
Experiment in all cases: ELISA, biotinylated IgG1-TM on coated ECD
[1] = biological target: T1, extracellular domain of human B7-H2 (R&D Systems, 165-B7) (human, UniProt O75144 19-256)
T1 construct: extracellular domain; Bought
T1 sequence (looked up): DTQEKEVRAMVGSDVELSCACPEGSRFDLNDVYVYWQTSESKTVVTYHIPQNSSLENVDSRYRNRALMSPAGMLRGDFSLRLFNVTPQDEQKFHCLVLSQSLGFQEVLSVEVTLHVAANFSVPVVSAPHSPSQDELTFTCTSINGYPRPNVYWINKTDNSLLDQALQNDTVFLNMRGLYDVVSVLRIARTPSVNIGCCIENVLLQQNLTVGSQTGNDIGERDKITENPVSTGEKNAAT
Protocol: (§1) ELISAs were performed to determine the cross-reactivity of the anti-B7-H1 IgG1-TM antibodies for other immune co-modulatory molecules. […] Murine cross reactivity was also investigated by coating the ECD of murine B7-H1 (R&D Systems, 1019-B7). Biotinylated anti-B7-H1 IgG1-TM diluted at 100 nM in PBS containing 3% dried milk powder, were incubated at room temperature for 2 h to allow binding. Bound biotinylated IgGs were detected with europium N1-labelled streptavidin (Perkin Elmer, 1244-360) at 0.2 ug/mL. […] Primary antibodies were incubated at 5 ug/mL in PBS containing 3% dried milk powder for 2 h at room temperature. Detection was carried out by incubating the secondary antibody anti-mouse IgG Peroxidase conjugate (Sigma, A2554) or anti-rat IgG Peroxidase conjugate (Sigma, A5795) diluted 1:5000 in PBS containing 3% dried milk powder for 1 h at room temperature and subsequent addition of TMB (Sigma, T0440). […] Non-specific binding was determined using wells coated with the IgG1 isotype control at 5 ug/mL. Cross reactivities were calculated at a percent of the specific binding to the antigen relative to human B7-H1.

[2] = biological target: T2, extracellular domain of human PD-L2 (R&D Systems, 1224-PL) (human, UniProt Q9BQ51 20-220)
T2 construct: extracellular domain; Bought
T2 sequence (looked up): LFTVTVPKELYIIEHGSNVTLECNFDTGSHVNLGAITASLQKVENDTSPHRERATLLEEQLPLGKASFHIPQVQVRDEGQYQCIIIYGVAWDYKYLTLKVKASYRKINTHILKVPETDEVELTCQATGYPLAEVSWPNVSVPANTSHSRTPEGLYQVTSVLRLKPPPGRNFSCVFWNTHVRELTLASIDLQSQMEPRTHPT
Protocol: as §1

[3] = biological target: T3, extracellular domain of human CD28 (R&D Systems, 342-CD) (human, UniProt P10747 19-152)
T3 construct: extracellular domain; Bought
T3 sequence (P10747 19-152): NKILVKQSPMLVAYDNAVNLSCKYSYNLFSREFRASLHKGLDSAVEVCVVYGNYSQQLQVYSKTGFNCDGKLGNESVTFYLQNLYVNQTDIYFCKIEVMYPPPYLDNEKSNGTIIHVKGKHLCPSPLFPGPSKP
Protocol: as §1

[4] = biological target: T4, human PD-1/Fc protein (R&D Systems, catalog #1086-PD) (human, UniProt Q15116 25-170)
T4 construct: extracellular domain; Bought; not shown: Fc portion
T4 sequence (Q15116 25-170): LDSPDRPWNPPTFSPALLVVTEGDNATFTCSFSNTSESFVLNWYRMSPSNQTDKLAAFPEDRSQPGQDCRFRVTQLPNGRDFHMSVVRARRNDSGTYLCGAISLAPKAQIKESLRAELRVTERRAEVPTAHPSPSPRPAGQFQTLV
Protocol: as §1

[5] = biological target: T5, extracellular domain of human CTLA-4 (R&D Systems, 325-CT) (human, UniProt P16410 36-161)
T5 construct: extracellular domain; Bought
T5 sequence (looked up): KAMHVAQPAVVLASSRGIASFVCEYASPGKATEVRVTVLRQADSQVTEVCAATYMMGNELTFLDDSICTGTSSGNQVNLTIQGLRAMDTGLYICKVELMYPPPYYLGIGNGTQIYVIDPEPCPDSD
Protocol: as §1

binding result [1]: no binding (tested: 100 nM)
binding result [2]: no binding (tested: 100 nM)
binding result [3]: no binding (tested: 100 nM)
binding result [4]: no binding (tested: 100 nM)
binding result [5]: no binding (tested: 100 nM)
B1: 2.7A4OPT (antibody, V domains shown)
VH: EVQLVESGGGLVKPGGSLRLSCAASGFTFSTYSMNWVRQAPGKGLEWVSSISSSGDYIYYADSVKGRFTISRDNAKNSLYLQMNSLRAEDTAVYYCARDLVTSMVAFDYWGQGTLVTVSS
VL: SYELTQPPSVSVSPGQTARITCSGDALPQKYVFWYQQKSGQAPVLVIYEDSKRPSGIPERFSGSSSGTMATLTISGAQVEDEADYYCYSTDRSGNHRVFGGGTKLTVL
notes: Germlined variable domains; human IgG1-TM (L234F, L235E, P331S), lambda; also called 2.7A4OPT IgG1-TM

From patent US20130034559A1 (AstraZeneca / MedImmune, published 2013)
